Here are results for one substance from patent publication US20090269786A1.

The target of test [1] is human ρ1 GABAC receptor (human) (UniProt P24046). Description: flow cytometry on SHp5-ρ1 cells, antibody at 1/1,000 dilution. Background: A flow cytometer gives signals particle by particle.
Test [2] shares this target. The test is described as follows: flow cytometry on SHp5-ρ1 cells, antibody at 1/25 or 1/50 dilution.

UniProt P24046, sequence (P24046 22-479): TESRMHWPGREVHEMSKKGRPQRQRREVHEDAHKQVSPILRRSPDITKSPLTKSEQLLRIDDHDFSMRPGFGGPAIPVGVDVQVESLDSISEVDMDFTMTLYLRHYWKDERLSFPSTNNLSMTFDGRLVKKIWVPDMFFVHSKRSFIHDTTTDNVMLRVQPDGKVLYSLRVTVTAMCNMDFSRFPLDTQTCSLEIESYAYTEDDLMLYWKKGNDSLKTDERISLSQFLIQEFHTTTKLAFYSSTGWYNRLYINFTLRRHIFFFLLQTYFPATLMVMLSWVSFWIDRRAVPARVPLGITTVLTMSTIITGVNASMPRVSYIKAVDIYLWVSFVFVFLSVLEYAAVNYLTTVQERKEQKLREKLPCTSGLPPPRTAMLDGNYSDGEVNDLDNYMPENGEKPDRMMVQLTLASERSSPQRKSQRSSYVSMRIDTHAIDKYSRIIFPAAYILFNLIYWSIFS

With “affinity-purified GABAC Ab N-14 (antibody)”, the percent positive cells in test [1] was determined as 47%; in test [2] it was 63%.
